Literature values in publication PMC10044870.

Target: cleaved high molecular weight kininogen (HKa) (Homo sapiens) (UniProt P01042)
Sequence (P01042 19-380, chain 1 of 2): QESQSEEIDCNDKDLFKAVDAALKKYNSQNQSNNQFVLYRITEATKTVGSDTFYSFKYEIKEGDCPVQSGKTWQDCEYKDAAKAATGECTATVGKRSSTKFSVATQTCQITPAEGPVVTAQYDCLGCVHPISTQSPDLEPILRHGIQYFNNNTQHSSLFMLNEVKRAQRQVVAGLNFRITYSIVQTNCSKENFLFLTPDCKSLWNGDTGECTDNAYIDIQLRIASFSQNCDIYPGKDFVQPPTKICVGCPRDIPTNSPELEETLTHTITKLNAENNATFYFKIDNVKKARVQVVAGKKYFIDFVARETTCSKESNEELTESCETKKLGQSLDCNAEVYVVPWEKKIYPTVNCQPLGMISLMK
Sequence (P01042 390-644, chain 2 of 2): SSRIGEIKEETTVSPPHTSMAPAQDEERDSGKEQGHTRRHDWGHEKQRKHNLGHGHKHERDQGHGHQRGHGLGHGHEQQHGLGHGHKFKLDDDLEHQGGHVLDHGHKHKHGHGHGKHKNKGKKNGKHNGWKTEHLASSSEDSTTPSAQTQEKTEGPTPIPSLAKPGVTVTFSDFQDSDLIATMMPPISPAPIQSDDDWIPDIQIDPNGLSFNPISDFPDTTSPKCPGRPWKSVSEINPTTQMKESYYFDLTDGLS

Sequence of ferritin (P02794 2-183): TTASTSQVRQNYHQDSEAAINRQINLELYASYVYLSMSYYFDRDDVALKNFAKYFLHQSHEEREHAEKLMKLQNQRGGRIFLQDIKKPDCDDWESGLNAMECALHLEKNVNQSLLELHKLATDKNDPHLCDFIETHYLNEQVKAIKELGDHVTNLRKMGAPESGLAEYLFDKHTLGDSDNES
Sequence of ferritin (P02792 2-175, further chain): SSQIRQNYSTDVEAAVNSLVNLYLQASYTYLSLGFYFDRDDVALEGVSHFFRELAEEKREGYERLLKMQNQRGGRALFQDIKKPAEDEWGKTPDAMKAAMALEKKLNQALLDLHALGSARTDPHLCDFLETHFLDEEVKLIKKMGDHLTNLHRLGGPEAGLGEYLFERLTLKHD

- Kd: 0.013 µM
Substance: ferritin (from UniProt P02794)
